# Experimental data published in publication PMC9963377.
# Target: tetrameric CDV attachment protein H-ectodomain (strain A75/17), with N-terminal tetrameric GCN4 motif (canine distemper virus (strain A75/17))
# Assay: cryo-EM structure
substance,measurement,value
"tetrameric CDV attachment protein H-ectodomain (strain A75/17), with N-terminal tetrameric GCN4 motif (domain or fragment)",stoichiometry N,4
